Values of other authors as cited in US20250341526A1, “NOVEL DYES” (Quantum-Si Incorporated, priority 2024, published 2025).

B1: PS559: ClpS amino acid recognition protein, SEQ ID NO: 73 (protein, listed as Planctomycetaceae bacterium)
chain: MNQAAISPNPDIKPNPSTHKKRASQRQPRYHVILWNDNDHTYHYVVTMLQKLFGHPPRTGIKMATEVDKKGKVIVLTTSREHAELKRDQIHAFGADKLIRRSKGAMAASIEPES
B2: PS550: ClpS amino acid recognition protein, SEQ ID NO: 64 (protein, listed as Planctomycetes bacterium)
chain: MPTFTEPEVVNDTRILPPYHVILLNDDDHTYEYVIHMLQTLFGHPQERGFQLAVEVDKKGKAIVFTTSKEHAEFKRDQIHAFGADPLSSKNCKGSMSAVIEPSF
B3: PS552: ClpS amino acid recognition protein, SEQ ID NO: 66 (protein)
chain: MSKTSTLPEVESESAQKLKYQPPYHVILLNDDDHSYVYVITMLKELFGHPEQKGYQLADAVDKQGRAIVFTTTREHAELKQEQIHAYGPDPTIPRCKGAMTAVIEPAE
modifications: Fimbriiglobus ruber
B4: PS566: ClpS amino acid recognition protein, SEQ ID NO: 80 (protein, listed as Planctomycetaceae bacterium)
chain: MSSPSSLDDVQVSTSRAKPANETRTRKQPPYAVIVENDDHHTFLYVIEALMKVCGHAPEKGFVLAQQIHTQGKAMVWSGTLELAELKRDQLRGFGPDNYAPRPVTFPLGVTIEPLP
B5: PS564: ClpS amino acid recognition protein, SEQ ID NO: 78 (protein, listed as Planctomycetes bacterium)
chain: MFEEVVSVAVAEPKTKKQSRTKPKRQPPYHVILWDDTDHTFDYVIKMMGELFRMPREKGYQLAKEVDTSGRAICMTTTLELAELKRDQIHAFGRDDASAHCKGSMSATIEPAEG
B6: PS563: ClpS amino acid recognition protein, SEQ ID NO: 77 (protein, listed as Acidobacteria bacterium)
chain: MSSRSATAYPEVEDDTSDQLQPLYHVILLNDEDHTYDYVIEMLQKIFGFPESKAFSHAVEVDTKGTTILLTCDLEQAERKRDLIHSYGPDWRLPRSLGSMAAVVEPAAG
B7: PS556: ClpS amino acid recognition protein, SEQ ID NO: 70 (protein, listed as Blastopirellula marina)
chain: MGDSNTSVAEPGEVTVVTTKPAPKKAKPKRQPKYHVVLWNDDDHTYEYVILMMHELFGHPVEKGFQIAKTVDADGRAICLTTTKEHAELKRDQIHAYGKDELIARCRGSMSSTIEPEC
B8: PS558: ClpS amino acid recognition protein, SEQ ID NO: 72 (protein, listed as Planctomycetia bacterium)
chain: MTATTADPDRTTAEKTTKKARRSGQPKRQPRYHVILWNDNDHTYQYVVAMLQQLFGHPATTGLKLATEVDRTGRAVILTTTREHAELKRDQIHAFGADRLLARSKGAMSASIEPEAE
B9: PS560: ClpS amino acid recognition protein, SEQ ID NO: 74 (protein, listed as Planctomycetes bacterium)
chain: MTETITTPAERTQTQAEPRSDRAWLWNVVLLDDDEHTYEYVIRMLHTLFGMPVERAFRLAEEVDARGRAVVLTTHKEHAELKRDQVHAFGKDALIASCAGSMSAVLEPAECGSDDED
B10: PS568: ClpS amino acid recognition protein, SEQ ID NO: 82 (protein, listed as Dehalococcoidia bacterium)
chain: MTTPSLPTRETEVEERTEVEPERLYHLVLLDDDQHSYQYVIEMLASIFGYGSEKAWTLARIVDTEGRAILETASHAQCERHQSQIHAYGADSRIPTSVGSMSAVIEEAGTPPQT
B11: PS565: ClpS amino acid recognition protein, SEQ ID NO: 79 (protein, listed as Aquisphaera sp.)
chain: MSEFDHEHSGDTSVADPIVTTKTAPKPQKHAENETETRRQPPYNVIILNDEEHTFDYVIELLCKVFRHSLATAQELTWRIHLTGRAVVLTTHKELAELKRDQVLAYGPDPRMSVSKGPLDCFIEPAPGG
B12: PS562: ClpS amino acid recognition protein, SEQ ID NO: 76 (protein, listed as Rubripirellula amarantea)
chain: MSDQQSMVAEPEVVVHTQDEKKLEKQNKRKKQPRYNVVLWDDTDHSYDYVVLMMKQLFHHPIETGFQIAKQVDKGGKAICLTTTMEHAELKRDQIHAFGKDDLIARCTGSMSATIEPVPE
B13: PS547: ClpS amino acid recognition protein, SEQ ID NO: 61 (protein, listed as Gemmataceae bacterium)
chain: MGFPTDFRQSIEISTPLGSQQPRFSNASSEPALADPVLVINPRIQPRYHVILLNDDDHTYRYVIEMMLIVFGHPPEKGFLIAKEVDKAGRAICLTTSLEHAEFKQEQVHAYGADPYFGPKCKGSMTAVLEPAE
B14: PS545: ClpS amino acid recognition protein, SEQ ID NO: 59 (protein, listed as Planctomycetales bacterium)
chain: MSEPMTLPAIPQPRLKERTQRQPPYNVILLNDDDHSYEYVIAMLQVLFGYPREKGYQMAKEVDSTGRVILLTTTREHAELKQEQIHAFGPDPLMARCQGSMTAVIEPAV
B15: PS546: ClpS amino acid recognition protein, SEQ ID NO: 60 (protein, listed as Planctomycetia bacterium)
chain: MSDTITLPGRPEVERDERTRRQPPYNVILHNDDDHTFEYVIVMLNQLFGYPPEKGYEMAKEVHLNGRVIVLTTSKEHAELKRDQIHAFGPDPFSSKDCKGSMSASIEPAY
B16: PS567: ClpS amino acid recognition protein, SEQ ID NO: 81 (protein, listed as Planctomycetaceae bacterium)
chain: MADYEDAGEDALEDDFDHGTVTVAPQKPEPKKQSENKRQANRQPRYNVLLWDSEDHTFEYVEKMLRELFGHIKKQCQIIAEQVDQEGRAVVLTTTLEHAELKRDQIHAYGKDQLEGSKGSMWSTIEAVD
B17: PS374: ClpS amino acid recognition protein, SEQ ID NO: 7 (protein)
chain: MRWEDPLAAEPVTPGVAPVVEEETDAAVETPWRVILYDDDIHTFEEVILQLMKATGCTPEQGERHAWTVHTRGKDCVYQGDFFDCFRVQGVLREIQLVTEIEG
B18: PS548: ClpS amino acid recognition protein, SEQ ID NO: 62 (protein, listed as Gemmataceae bacterium)
chain: MSDTITLPEEKTDVRTKRQPPYHVILLNDDDHTYQYVIYMLQTLFGHPPETGFKMAQEVDKTGRVIVDTTSLERAELKRDQIHAFGPDPYIERCKGSMSAMIEPSE
B19: PS549: ClpS amino acid recognition protein, SEQ ID NO: 63 (protein, listed as Planctomycetes bacterium)
chain: MSESITTLPKKSRRLKEEEEQKTKRQPPYNVILLNDDDHTFEYVIFMLQKLFGHPPERGMQMAKEVHTTGRVIVMTTALELAELKRDQIHAFGPDPLIDRCKGSMSATIEPAPI
B20: PS554: ClpS amino acid recognition protein, SEQ ID NO: 68 (protein, listed as Planctomycetia bacterium)
chain: MSDSASATVEVQADPPADATARSQPTPARSTGSKPKRQPRYHVVLWNDDDHTYEYVIAMLRRLFGIEPEKGFRIAEEVDQSGRAVVLTTTREHAELKRDQIHAFGADRLLARSKGSMSASIEPEA
B21: PS553: ClpS amino acid recognition protein, SEQ ID NO: 67 (protein, listed as Planctomycetes bacterium)
chain: MPASASAVTEPPVSLPEAAAPRPKDRPKRQPRYHVILWNDDDHTYQYVVAMLRQLFGHPPEKGFTLAKQVDKDGRVVVLTTTKEHAELKRDQIHAFGADRLLARSKGSMSASIEPEASTG
B22: PS557: ClpS amino acid recognition protein, SEQ ID NO: 71 (protein, listed as Planctomycetia bacterium)
chain: MPTAASATESAIEDTPAPARPEVDGRTKPKRQPRYHVVLWNDDDHTYQYVVVMLQSLFGHPPERGYRLAKEVDTQGRVIVLTTTREHAELKRDQIHAFGYDRLLARSKGSMKASIEAEE
B23: PS551: ClpS amino acid recognition protein, SEQ ID NO: 65 (protein, listed as Rubrobacter indicoceani)
chain: MPSAAPAKPKTKRQSRTQGMPPYNVVLLDDDDHTYGYVIEMLNKVFGHPPEKGFELATEVDKNGRVIVMTTNLEVAELKRDEVHAFGPDPLMPRSKGSMSAVVERAG
B24: PS555: ClpS amino acid recognition protein, SEQ ID NO: 69 (protein, listed as Planctomycetes bacterium)
chain: MADSAQTGVAEPIQETLRRRKLRDDRRPKRQPPYHVILWNDNDHTYAYVVVMLMQLFGYPAEKGYQLASEVDTQGRAVVLTTTKEHAELKRDQIHAYGKDGLIEKCKGSMWATIEPAPGE
B25: PS569: ClpS amino acid recognition protein, SEQ ID NO: 83 (protein, listed as Planctomycetes bacterium)
chain: MYSKNQIKIYCSEDDKGQTATPLLEKKPKFAPLYHVILWDDNTHTYEYVIKLLMSLFRMTFEKAYQHTLEVDKKGRTICITTHLEKAELKQEQISNFGPDILMQNSKGPMSATIEPAN
B26: PS561: ClpS amino acid recognition protein, SEQ ID NO: 75 (protein, listed as Roseimaritima sp.)
chain: MAELQTAVVEPTTRPEQDEKQSQSRPKRQPRYNVILWDDPDHSYDYVIMMLKELFGHPRQRGHQMAEEVDTTGRVICLTTTMEHAELKRDQIHAYGSDEGITRCKGSMSASIEPVPE

Tested on: amino acid at a terminal position of a polypeptide
Conditions: Table 1, ClpS proteins; amino acid at terminal position; inferred from literature and/or demonstrated by the inventors; cited from earlier work

| Molecule | Binding Pref. |
| --- | --- |
| B1 | I, L, V |
| B2 | I, L, V |
| B3 | I, L, V |
| B4 | I, L, V |
| B5 | I, L, V |
| B6 | I, L, V |
| B7 | I, L, V |
| B8 | I, L, V |
| B9 | I, L, V |
| B10 | I, L, V |
| B11 | I, L, V |
| B12 | I, L, V |
| B13 | I, L, V |
| B14 | I, L, V |
| B15 | I, L, V |
| B16 | I, L, V |
| B17 | F, Y, W, L |
| B18 | I, L, V |
| B19 | I, L, V |
| B20 | I, L, V |
| B21 | I, L, V |
| B22 | I, L, V |
| B23 | I, L, V |
| B24 | I, L, V |
| B25 | I, L, V |
| B26 | I, L, V |
